Assay results taken from patent US20230035798A1 (CAPELLA BIOSCIENCE, published 2023).

Tests used:
[1] = target: membrane LIGHT without residues 81-84 (EL4-NC-LIGHT cells) (human, UniProt O43557 1-240); test: cell-based or functional assay
[2] = target: T1, human LIGHT (TNFSF14), full length, membrane-bound (214E allele) (human, UniProt O43557 1-240); test: flow cytometry, EL4-LIGHT cells
T1 construct: also called membrane LIGHT; human membrane LIGHT
T1 sequence (O43557 whole entry K214E): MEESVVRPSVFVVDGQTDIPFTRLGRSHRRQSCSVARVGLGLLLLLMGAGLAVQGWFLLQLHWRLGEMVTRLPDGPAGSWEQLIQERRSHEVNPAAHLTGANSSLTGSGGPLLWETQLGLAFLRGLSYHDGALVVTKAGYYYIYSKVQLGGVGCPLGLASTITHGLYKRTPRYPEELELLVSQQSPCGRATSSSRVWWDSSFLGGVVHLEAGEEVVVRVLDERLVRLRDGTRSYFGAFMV

Chain of membrane LIGHT without residues 81-84 (EL4-NC-LIGHT cells) (O43557 other isoform, or with tags, fused parts or gaps): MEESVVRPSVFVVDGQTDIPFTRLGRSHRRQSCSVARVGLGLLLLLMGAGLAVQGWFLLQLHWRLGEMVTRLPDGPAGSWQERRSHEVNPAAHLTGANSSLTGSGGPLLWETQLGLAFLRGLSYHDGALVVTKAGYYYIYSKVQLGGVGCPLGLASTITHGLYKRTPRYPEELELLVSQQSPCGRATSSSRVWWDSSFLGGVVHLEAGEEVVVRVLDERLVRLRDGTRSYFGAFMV

Binder	IC50, inhibition of IL-8 secretion from HT-29 cells (EL4-NC-LIGHT cells) [1] [pM]	EC50 [2] [pM]
3B04_var8 (antibody, human IgG4, V domains shown, human IgG4 (S241P, L248E, Kabat); also called 3B04 VL2VH4 (var8)) VH: QVQLVQSGAEVKKPGASVKVSCKASGYTFTDYEMHWVRQAPGQGLEWMGEIDPETGDTAYAQKFQGRVTLTADKSTSTAYMELSSLRSEDTAVYYCSRETDYFFDYWGQGTLVTVSS VL: DIQMTQSPSSLSASVGDRVTITCGASENIYGALNWYQRKQGKAPKLLIYGATNLADGVPSRFSGSGSGRDYTLTISSLQPEDFATYYCQNVLTTPWTFGQGTKLEIKR	50	280
3B04_var14 (antibody, human IgG4, V domains shown, human IgG4 (S241P, L248E, Kabat); also called 3B04 VL4VH2 (var14)) VH: QVQLVQSGAEVKKPGASVKVSCKASGYTFTDYEMHWVRQAPGQGLEWIGEIDPETGDTAYSQKFQGRVTLTADKSTSTAYMEFSSLRSEDTAVYYCSRETDYFFDYWGQGTLVTVSS VL: DIQMTQSPSSLSASVGDRVTITCRASENIYGALNWYQQKPGKAPKLLIYGATNLAEGVPSRFSGSGSGRDYTLTISSLQPEDFATYYCQNVLTTPWTFGQGTKLEIKR	50	300
3B04_var15 (antibody, human IgG4, V domains shown, human IgG4 (S241P, L248E, Kabat); also called 3B04 VL4VH3 (var15)) VH: QVQLVQSGAEVKKPGASVKVSCKASGYTFTDYEMHWVRQAPGQGLEWMGEIDPETGDTAYAQKFQGRVTLTADKSTSTAYMEFSSLRSEDTAVYYCSRETDYFFDYWGQGTLVTVSS VL: DIQMTQSPSSLSASVGDRVTITCRASENIYGALNWYQQKPGKAPKLLIYGATNLAEGVPSRFSGSGSGRDYTLTISSLQPEDFATYYCQNVLTTPWTFGQGTKLEIKR	100	390
3B04_var4 (antibody, human IgG4, V domains shown, human IgG4 (S241P, L248E, Kabat); also called 3B04 VL1VH4 (var4)) VH: QVQLVQSGAEVKKPGASVKVSCKASGYTFTDYEMHWVRQAPGQGLEWMGEIDPETGDTAYAQKFQGRVTLTADKSTSTAYMELSSLRSEDTAVYYCSRETDYFFDYWGQGTLVTVSS VL: DIQMTQSPSSLSASVGDRVTITCGASENIYGALNWYQRKQGKAPQLLIYGATNLADGVSSRFSGSGSGRDYTLTISSLQPEDFATYYCQNVLTTPWTFGQGTKLEIKR	40	260
3B04_var10 (antibody, human IgG4, V domains shown, human IgG4 (S241P, L248E, Kabat); also called 3B04 VL3VH2 (var10)) VH: QVQLVQSGAEVKKPGASVKVSCKASGYTFTDYEMHWVRQAPGQGLEWIGEIDPETGDTAYSQKFQGRVTLTADKSTSTAYMEFSSLRSEDTAVYYCSRETDYFFDYWGQGTLVTVSS VL: DIQMTQSPSSLSASVGDRVTITCGASENIYGALNWYQQKPGKAPKLLIYGATNLADGVPSRFSGSGSGRDYTLTISSLQPEDFATYYCQNVLTTPWTFGQGTKLEIKR	40	490
3B04_var2 (antibody, human IgG4, V domains shown, human IgG4 (S241P, L248E, Kabat); also called 3B04 VL1VH2 (var2)) VH: QVQLVQSGAEVKKPGASVKVSCKASGYTFTDYEMHWVRQAPGQGLEWIGEIDPETGDTAYSQKFQGRVTLTADKSTSTAYMEFSSLRSEDTAVYYCSRETDYFFDYWGQGTLVTVSS VL: DIQMTQSPSSLSASVGDRVTITCGASENIYGALNWYQRKQGKAPQLLIYGATNLADGVSSRFSGSGSGRDYTLTISSLQPEDFATYYCQNVLTTPWTFGQGTKLEIKR	60	380
3B04_var16 (antibody, human IgG4, V domains shown, human IgG4 (S241P, L248E, Kabat); also called 3B04 VL4VH4 (var16); 3B04 variant 16) VH: QVQLVQSGAEVKKPGASVKVSCKASGYTFTDYEMHWVRQAPGQGLEWMGEIDPETGDTAYAQKFQGRVTLTADKSTSTAYMELSSLRSEDTAVYYCSRETDYFFDYWGQGTLVTVSS VL: DIQMTQSPSSLSASVGDRVTITCRASENIYGALNWYQQKPGKAPKLLIYGATNLAEGVPSRFSGSGSGRDYTLTISSLQPEDFATYYCQNVLTTPWTFGQGTKLEIKR	100	240
3B04_var12 (antibody, human IgG4, V domains shown, human IgG4 (S241P, L248E, Kabat); also called 3B04 VL3VH4 (var12)) VH: QVQLVQSGAEVKKPGASVKVSCKASGYTFTDYEMHWVRQAPGQGLEWMGEIDPETGDTAYAQKFQGRVTLTADKSTSTAYMELSSLRSEDTAVYYCSRETDYFFDYWGQGTLVTVSS VL: DIQMTQSPSSLSASVGDRVTITCGASENIYGALNWYQQKPGKAPKLLIYGATNLADGVPSRFSGSGSGRDYTLTISSLQPEDFATYYCQNVLTTPWTFGQGTKLEIKR	70	240
3B04_var7 (antibody, human IgG4, V domains shown, human IgG4 (S241P, L248E, Kabat); also called 3B04 VL2VH3 (var7)) VH: QVQLVQSGAEVKKPGASVKVSCKASGYTFTDYEMHWVRQAPGQGLEWMGEIDPETGDTAYAQKFQGRVTLTADKSTSTAYMEFSSLRSEDTAVYYCSRETDYFFDYWGQGTLVTVSS VL: DIQMTQSPSSLSASVGDRVTITCGASENIYGALNWYQRKQGKAPKLLIYGATNLADGVPSRFSGSGSGRDYTLTISSLQPEDFATYYCQNVLTTPWTFGQGTKLEIKR	50	230
3D12_var3 (antibody, human IgG4, V domains shown, human IgG4 (S241P, L248E, Kabat); also called 3D12 VL1VH3 (var3)) VH: QVQLVQSGAEVKKPGASVKVSCKASDYTFTDSEIHWVRQAPGQGLEWMGEIDPETGGTAYAQKFQGRVTLTADKSTSTAYMELSSLRSEDTAVYYCSRETDYFFDYWGQGTLVTVSS VL: DIQMTQSPSSLSASVGDRVTITCGASENIYGALNWYQRKQGKAPQLLIYGATNLADGVSSRFSGSGSGRDYTLTISSLQPEDVATYYCQNVLSTPWTFGQGTKLEIKR	530	330
3D12_var1 (antibody, human IgG4, V domains shown, human IgG4 (S241P, L248E, Kabat); also called 3D12 VL1VH1 (var1)) VH: QVQLVQSGAEVKKPGASVKVSCKASDYTFTDSEIHWVRQAPGQGLEWIGEIDPETGGTAYNQKFKGRATLTADKSTSTAYMELSSLRSEDTAVYYCSRETDYFFDYWGQGTLVTVSS VL: DIQMTQSPSSLSASVGDRVTITCGASENIYGALNWYQRKQGKAPQLLIYGATNLADGVSSRFSGSGSGRDYTLTISSLQPEDVATYYCQNVLSTPWTFGQGTKLEIKR	330	220
3D12_var2 (antibody, human IgG4, V domains shown, human IgG4 (S241P, L248E, Kabat); also called 3D12 VL1VH2 (var2)) VH: QVQLVQSGAEVKKPGASVKVSCKASDYTFTDSEIHWVRQAPGQGLEWIGEIDPETGGTAYNQKFQGRVTLTADKSTSTAYMELSSLRSEDTAVYYCSRETDYFFDYWGQGTLVTVSS VL: DIQMTQSPSSLSASVGDRVTITCGASENIYGALNWYQRKQGKAPQLLIYGATNLADGVSSRFSGSGSGRDYTLTISSLQPEDVATYYCQNVLSTPWTFGQGTKLEIKR	740	470
3B04_var6 (antibody, human IgG4, V domains shown, human IgG4 (S241P, L248E, Kabat); also called 3B04 VL2VH2 (var6)) VH: QVQLVQSGAEVKKPGASVKVSCKASGYTFTDYEMHWVRQAPGQGLEWIGEIDPETGDTAYSQKFQGRVTLTADKSTSTAYMEFSSLRSEDTAVYYCSRETDYFFDYWGQGTLVTVSS VL: DIQMTQSPSSLSASVGDRVTITCGASENIYGALNWYQRKQGKAPKLLIYGATNLADGVPSRFSGSGSGRDYTLTISSLQPEDFATYYCQNVLTTPWTFGQGTKLEIKR	80	270
3B04_var13 (antibody, human IgG4, V domains shown, human IgG4 (S241P, L248E, Kabat); also called 3B04 VL4VH1 (var13)) VH: QVQLVQSGAEVKKPGASVKVSCKASGYTFTDYEMHWVRQAPGQGLEWIGEIDPETGDTAYSQKFKGRATLTADKSTSTAYMEFSSLRSEDTAVYYCSRETDYFFDYWGQGTLVTVSS VL: DIQMTQSPSSLSASVGDRVTITCRASENIYGALNWYQQKPGKAPKLLIYGATNLAEGVPSRFSGSGSGRDYTLTISSLQPEDFATYYCQNVLTTPWTFGQGTKLEIKR	40	320
3B04_var3 (antibody, human IgG4, V domains shown, human IgG4 (S241P, L248E, Kabat); also called 3B04 VL1VH3 (var3)) VH: QVQLVQSGAEVKKPGASVKVSCKASGYTFTDYEMHWVRQAPGQGLEWMGEIDPETGDTAYAQKFQGRVTLTADKSTSTAYMEFSSLRSEDTAVYYCSRETDYFFDYWGQGTLVTVSS VL: DIQMTQSPSSLSASVGDRVTITCGASENIYGALNWYQRKQGKAPQLLIYGATNLADGVSSRFSGSGSGRDYTLTISSLQPEDFATYYCQNVLTTPWTFGQGTKLEIKR	40	320
3B04_var1 (antibody, human IgG4, V domains shown, human IgG4 (S241P, L248E, Kabat); also called 3B04 VL1VH1 (var1)) VH: QVQLVQSGAEVKKPGASVKVSCKASGYTFTDYEMHWVRQAPGQGLEWIGEIDPETGDTAYSQKFKGRATLTADKSTSTAYMEFSSLRSEDTAVYYCSRETDYFFDYWGQGTLVTVSS VL: DIQMTQSPSSLSASVGDRVTITCGASENIYGALNWYQRKQGKAPQLLIYGATNLADGVSSRFSGSGSGRDYTLTISSLQPEDFATYYCQNVLTTPWTFGQGTKLEIKR	50	240
3B04_var11 (antibody, human IgG4, V domains shown, human IgG4 (S241P, L248E, Kabat); also called 3B04 VL3VH3 (var11)) VH: QVQLVQSGAEVKKPGASVKVSCKASGYTFTDYEMHWVRQAPGQGLEWMGEIDPETGDTAYAQKFQGRVTLTADKSTSTAYMEFSSLRSEDTAVYYCSRETDYFFDYWGQGTLVTVSS VL: DIQMTQSPSSLSASVGDRVTITCGASENIYGALNWYQQKPGKAPKLLIYGATNLADGVPSRFSGSGSGRDYTLTISSLQPEDFATYYCQNVLTTPWTFGQGTKLEIKR	60	370
3B04_var9 (antibody, human IgG4, V domains shown, human IgG4 (S241P, L248E, Kabat); also called 3B04 VL3VH1 (var9)) VH: QVQLVQSGAEVKKPGASVKVSCKASGYTFTDYEMHWVRQAPGQGLEWIGEIDPETGDTAYSQKFKGRATLTADKSTSTAYMEFSSLRSEDTAVYYCSRETDYFFDYWGQGTLVTVSS VL: DIQMTQSPSSLSASVGDRVTITCGASENIYGALNWYQQKPGKAPKLLIYGATNLADGVPSRFSGSGSGRDYTLTISSLQPEDFATYYCQNVLTTPWTFGQGTKLEIKR	90	260
3B04_var5 (antibody, human IgG4, V domains shown, human IgG4 (S241P, L248E, Kabat); also called 3B04 VL2VH1 (var5)) VH: QVQLVQSGAEVKKPGASVKVSCKASGYTFTDYEMHWVRQAPGQGLEWIGEIDPETGDTAYSQKFKGRATLTADKSTSTAYMEFSSLRSEDTAVYYCSRETDYFFDYWGQGTLVTVSS VL: DIQMTQSPSSLSASVGDRVTITCGASENIYGALNWYQRKQGKAPKLLIYGATNLADGVPSRFSGSGSGRDYTLTISSLQPEDFATYYCQNVLTTPWTFGQGTKLEIKR	40	270
